{
  "source": "paper PMC7961048",
  "about": "(2021)",
  "key": {"[1]": {"target": "T1, full-length human 14-3-3γ fused to the C terminus of MBP (human, UniProt P61981 1-247)", "T1 chain": "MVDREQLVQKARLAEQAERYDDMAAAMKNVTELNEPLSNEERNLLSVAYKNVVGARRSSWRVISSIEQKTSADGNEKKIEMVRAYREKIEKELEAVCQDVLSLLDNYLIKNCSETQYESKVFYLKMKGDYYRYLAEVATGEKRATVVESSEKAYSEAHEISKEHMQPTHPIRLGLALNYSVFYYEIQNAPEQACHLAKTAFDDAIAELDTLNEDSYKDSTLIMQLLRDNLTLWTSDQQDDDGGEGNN", "experiment": "FP; with FSC"}, "[2]": {"target": "T2, full-length human 14-3-3β fused to the C terminus of MBP (human, UniProt P31946 1-246)", "T2 chain": "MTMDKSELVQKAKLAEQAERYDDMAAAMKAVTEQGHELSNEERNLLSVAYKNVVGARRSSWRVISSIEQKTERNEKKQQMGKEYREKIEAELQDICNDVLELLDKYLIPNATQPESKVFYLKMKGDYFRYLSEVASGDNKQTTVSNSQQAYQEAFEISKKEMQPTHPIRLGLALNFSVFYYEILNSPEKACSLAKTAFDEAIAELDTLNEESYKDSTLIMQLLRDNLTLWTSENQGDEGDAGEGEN", "experiment": "FP"}, "[3]": {"target": "T3, full-length human 14-3-3η fused to the C terminus of MBP (human, UniProt Q04917 1-246)", "T3 chain": "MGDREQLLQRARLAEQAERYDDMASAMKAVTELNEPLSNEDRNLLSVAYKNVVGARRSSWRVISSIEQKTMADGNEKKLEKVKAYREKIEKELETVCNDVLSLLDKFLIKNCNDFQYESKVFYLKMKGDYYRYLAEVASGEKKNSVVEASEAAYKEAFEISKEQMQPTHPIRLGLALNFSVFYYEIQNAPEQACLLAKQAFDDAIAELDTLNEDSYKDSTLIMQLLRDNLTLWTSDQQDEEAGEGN", "experiment": "FP"}, "[4]": {"target": "T4, full-length human 14-3-3ζ fused to the C terminus of MBP (human, UniProt P63104 1-245)", "T4 chain": "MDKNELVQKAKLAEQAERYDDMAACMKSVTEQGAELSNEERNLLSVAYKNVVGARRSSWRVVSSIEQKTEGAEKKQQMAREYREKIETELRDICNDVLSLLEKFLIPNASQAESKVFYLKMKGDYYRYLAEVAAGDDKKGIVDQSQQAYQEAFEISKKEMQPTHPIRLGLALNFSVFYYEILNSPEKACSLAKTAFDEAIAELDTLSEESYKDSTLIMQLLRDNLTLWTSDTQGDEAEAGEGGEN", "experiment": "FP"}, "[5]": {"target": "T5, full-length human 14-3-3ε fused to the C terminus of MBP (human, UniProt P62258 1-255)", "T5 chain": "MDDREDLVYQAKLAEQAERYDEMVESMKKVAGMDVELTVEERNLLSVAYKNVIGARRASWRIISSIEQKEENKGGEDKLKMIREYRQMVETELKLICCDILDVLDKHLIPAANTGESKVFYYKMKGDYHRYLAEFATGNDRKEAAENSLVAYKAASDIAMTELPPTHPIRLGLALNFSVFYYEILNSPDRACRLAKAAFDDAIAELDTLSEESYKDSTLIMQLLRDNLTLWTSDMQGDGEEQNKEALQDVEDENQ", "experiment": "FP"}, "[6]": {"target": "T6, full-length human 14-3-3σ fused to the C terminus of MBP (human, UniProt P31947 1-248)", "T6 chain": "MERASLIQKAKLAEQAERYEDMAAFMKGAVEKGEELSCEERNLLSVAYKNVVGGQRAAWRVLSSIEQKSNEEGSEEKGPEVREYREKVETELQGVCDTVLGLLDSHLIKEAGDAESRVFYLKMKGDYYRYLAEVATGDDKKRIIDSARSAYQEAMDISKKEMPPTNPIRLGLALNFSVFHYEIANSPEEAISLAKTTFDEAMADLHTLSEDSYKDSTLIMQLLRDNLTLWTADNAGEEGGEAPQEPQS", "experiment": "FP"}, "[7]": {"target": "T7, full-length human 14-3-3τ fused to the C terminus of MBP (human, UniProt P27348 1-245)", "T7 chain": "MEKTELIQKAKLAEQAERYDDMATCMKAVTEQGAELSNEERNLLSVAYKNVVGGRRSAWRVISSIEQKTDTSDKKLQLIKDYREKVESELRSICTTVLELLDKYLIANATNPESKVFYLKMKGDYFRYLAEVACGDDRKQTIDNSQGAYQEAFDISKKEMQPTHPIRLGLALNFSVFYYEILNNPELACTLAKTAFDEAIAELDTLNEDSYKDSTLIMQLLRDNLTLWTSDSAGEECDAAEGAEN", "experiment": "FP"}, "[8]": {"target": "T1, full-length human 14-3-3γ fused to the …", "experiment": "FP"}, "[9]": {"target": "T8, unfused 14-3-3τ devoid of the flexible C-terminal tail (human)", "T8 chain": "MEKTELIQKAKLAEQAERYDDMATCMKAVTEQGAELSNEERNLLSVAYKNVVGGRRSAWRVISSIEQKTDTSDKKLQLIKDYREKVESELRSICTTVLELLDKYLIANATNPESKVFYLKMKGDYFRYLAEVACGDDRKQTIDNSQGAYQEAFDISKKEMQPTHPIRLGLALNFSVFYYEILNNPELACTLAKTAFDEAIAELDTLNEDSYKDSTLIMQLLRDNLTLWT", "experiment": "FP"}, "[10]": {"target": "T1, full-length human 14-3-3γ fused to the …", "experiment": "FP"}},
  "note": "Non-standard residues stand in square brackets, D forms with d. No end group written: not given here. *: point of attachment. Biotin = O=C1N[C@H]2[C@H](CS[C@H]2CCCCC(=O)*)N1; pT = C[C@@H](OP(=O)(O)O)[C@H](N)C(=O)O; ttds = NCCCOCCOCCOCCCNC(=O)CCC(=O)*",
  "data": [
    {"binder": "{Biotin-ttds}-SSRTRRE[pT]QL", "note": "[HPV16 E6 phospho-PBM peptide p16E6]", "values": [
      {"measurement": "Kd", "setting": "[1]", "value": 91.7, "unit": "µM"},
      {"measurement": "Kd", "setting": "[2]", "value": 159, "unit": "µM"},
      {"measurement": "Kd", "setting": "[3]", "value": 80.5, "unit": "µM"},
      {"measurement": "Kd", "setting": "[4]", "value": 73.6, "unit": "µM"},
      {"measurement": "Kd", "setting": "[5]", "value": "> 300", "unit": "µM"},
      {"measurement": "Kd", "setting": "[6]", "value": "> 300", "unit": "µM"},
      {"measurement": "Kd", "setting": "[7]", "value": 144, "unit": "µM"},
      {"measurement": "Kd", "setting": "[8]", "value": 37.2, "unit": "µM"},
      {"measurement": "Kd", "setting": "[9]", "value": 135, "unit": "µM"},
      {"measurement": "Kd", "setting": "[10]", "value": 37.2, "unit": "µM"}
    ]},
    {"binder": "{Biotin-ttds}-RLQRRRE[pT]QV", "note": "[HPV18 E6 phospho-PBM peptide p18E6]", "values": [
      {"measurement": "Kd", "setting": "[1]", "value": 19.3, "unit": "µM"},
      {"measurement": "Kd", "setting": "[2]", "value": 42.2, "unit": "µM"},
      {"measurement": "Kd", "setting": "[3]", "value": 23.6, "unit": "µM"},
      {"measurement": "Kd", "setting": "[4]", "value": 22.4, "unit": "µM"},
      {"measurement": "Kd", "setting": "[5]", "value": 101, "unit": "µM"},
      {"measurement": "Kd", "setting": "[6]", "value": 139, "unit": "µM"},
      {"measurement": "Kd", "setting": "[7]", "value": 37.8, "unit": "µM"},
      {"measurement": "Kd", "setting": "[8]", "value": 11.1, "unit": "µM"},
      {"measurement": "Kd", "setting": "[9]", "value": 42.3, "unit": "µM"},
      {"measurement": "Kd", "setting": "[10]", "value": 11.1, "unit": "µM"}
    ]}
  ]
}
